Legend:
[1] = biological target: Human GARP-TGFβ1 complex (human) (UniProt Q14392); experiment: SPR (Biacore T200), method of Example 4
[2] = biological target: Human GARP-TGFβ1 complex (human) (UniProt Q14392); experiment: SPR (Biacore T200), antibody on Protein A chip, antigen in flow

Sequence of Human GARP-TGFβ1 complex (human) (Q14392 other isoform, or with tags, fused parts or gaps limits assumed, chain 1 of 2): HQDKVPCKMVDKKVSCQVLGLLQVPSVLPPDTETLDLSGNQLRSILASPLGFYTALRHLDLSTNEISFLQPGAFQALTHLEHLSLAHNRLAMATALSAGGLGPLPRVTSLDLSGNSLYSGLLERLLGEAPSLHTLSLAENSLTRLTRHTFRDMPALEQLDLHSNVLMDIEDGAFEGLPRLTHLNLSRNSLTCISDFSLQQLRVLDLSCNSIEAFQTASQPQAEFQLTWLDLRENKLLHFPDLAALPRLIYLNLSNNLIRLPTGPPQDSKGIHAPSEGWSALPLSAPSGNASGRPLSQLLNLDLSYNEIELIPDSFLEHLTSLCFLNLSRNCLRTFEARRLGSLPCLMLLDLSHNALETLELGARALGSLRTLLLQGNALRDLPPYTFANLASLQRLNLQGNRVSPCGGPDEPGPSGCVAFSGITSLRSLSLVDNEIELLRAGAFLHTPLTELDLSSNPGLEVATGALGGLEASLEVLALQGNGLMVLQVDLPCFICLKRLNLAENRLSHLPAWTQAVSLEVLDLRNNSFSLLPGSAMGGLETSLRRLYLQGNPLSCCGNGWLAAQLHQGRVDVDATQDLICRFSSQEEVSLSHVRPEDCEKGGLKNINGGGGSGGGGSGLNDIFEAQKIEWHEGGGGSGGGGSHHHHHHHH
Sequence of Human GARP-TGFβ1 complex (human) (chain, as listed by the source limits assumed, chain 2 of 2): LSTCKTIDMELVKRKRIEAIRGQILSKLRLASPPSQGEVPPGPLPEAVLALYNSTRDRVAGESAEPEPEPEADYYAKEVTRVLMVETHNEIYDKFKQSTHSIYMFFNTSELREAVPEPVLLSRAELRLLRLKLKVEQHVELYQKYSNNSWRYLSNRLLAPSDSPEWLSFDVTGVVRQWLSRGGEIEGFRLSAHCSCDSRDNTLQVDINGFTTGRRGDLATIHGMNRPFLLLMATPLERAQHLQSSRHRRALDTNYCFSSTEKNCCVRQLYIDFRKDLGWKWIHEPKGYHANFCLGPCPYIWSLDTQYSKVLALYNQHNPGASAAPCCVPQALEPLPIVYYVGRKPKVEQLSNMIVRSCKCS

Kd [1]: 0.98 nM
koff [1]: 0.000151 s⁻¹
kon [1]: 154000 M⁻¹ s⁻¹
Kd [2]: 4.39 nM
koff [2]: 0.00283 s⁻¹
kon [2]: 645000 M⁻¹ s⁻¹
Substance: Abbv-151 (antibody)

Source: patent EP4650366A1
